Data set [1] concerns the target synthetic peptide mimicking the type IV collagen alpha-4 chain, undigested.
Data set [2] addresses synthetic peptide mimicking the type IV collagen alpha-3 chain, undigested.
The target of data set [3] is monoclonal antibody raised against the C4A3-HNE target sequence. The data set is described as follows: competitive ELISA: standard peptide against the biotinylated peptide on a streptavidin plate, HRP-conjugated antibody; mean of the standard curves.
In data set [4] the target is monoclonal antibody raised against the C4A4-HNE target sequence. The data set is described as above.

B1: active neutrophil elastase purified from human cells (protein)
chain: IVGGRRARPHAWPFMVSLQLRGGHFCGATLIAPNFVMSAAHCVANVNVRAVRVVLGAHNLSRREPTRQVFAVQRIFENGYDPVNLLNDIVILQLNGSATINANVQVAQLPAQGRRLGNGVQCLAMGWGLLGRNRGIASVLQELNVTVVTSLCRRSNVCTLVRGRQAGVCFGDSGSPLVCNGLIHGIASFVRGGCASGLYPDAFAPVAQFVNWIDSIIQ
On to B1, for which the “release of the neo-epitope after 4 hours of incubation with active HNE, detected by the C4A4-HNE ELISA” value in data set [1] is recorded as “HNE was able to generate both neo-epitopes”. For the same molecule, in data set [2], the “release of the neo-epitope after 4 hours of incubation with active HNE, detected by the C4A3-HNE ELISA” value was “HNE was able to generate both neo-epitopes”.

Regarding EGTRPGPPGP [C4A3-HNE standard/selection peptide …], the IC50 in data set [3] worked out at 0.0731 µg/mL.

Take TYPGRHGPPG [C4A4-HNE standard/selection peptide …]: the IC50 in data set [4] was found to be 0.0336 µg/mL.
